Assays:
[1] = molecular target: T1, MRS-AIMP3 co-purified protein (human, UniProt P56192 1-900; O43324 1-174, limits assumed); assay: SPR, MRS+AIMP3 protein coated on CM5 chip, antibody as analyte; MRS+AIMP3 co-purified protein on the CM5 chip, 8A12 antibody as analyte
T1 construct: Complex of MRS and AIMP3, co-expressed in E. coli BL21DE3 and co-purified; also called MRS+AIMP3 protein
T1 sequence 1: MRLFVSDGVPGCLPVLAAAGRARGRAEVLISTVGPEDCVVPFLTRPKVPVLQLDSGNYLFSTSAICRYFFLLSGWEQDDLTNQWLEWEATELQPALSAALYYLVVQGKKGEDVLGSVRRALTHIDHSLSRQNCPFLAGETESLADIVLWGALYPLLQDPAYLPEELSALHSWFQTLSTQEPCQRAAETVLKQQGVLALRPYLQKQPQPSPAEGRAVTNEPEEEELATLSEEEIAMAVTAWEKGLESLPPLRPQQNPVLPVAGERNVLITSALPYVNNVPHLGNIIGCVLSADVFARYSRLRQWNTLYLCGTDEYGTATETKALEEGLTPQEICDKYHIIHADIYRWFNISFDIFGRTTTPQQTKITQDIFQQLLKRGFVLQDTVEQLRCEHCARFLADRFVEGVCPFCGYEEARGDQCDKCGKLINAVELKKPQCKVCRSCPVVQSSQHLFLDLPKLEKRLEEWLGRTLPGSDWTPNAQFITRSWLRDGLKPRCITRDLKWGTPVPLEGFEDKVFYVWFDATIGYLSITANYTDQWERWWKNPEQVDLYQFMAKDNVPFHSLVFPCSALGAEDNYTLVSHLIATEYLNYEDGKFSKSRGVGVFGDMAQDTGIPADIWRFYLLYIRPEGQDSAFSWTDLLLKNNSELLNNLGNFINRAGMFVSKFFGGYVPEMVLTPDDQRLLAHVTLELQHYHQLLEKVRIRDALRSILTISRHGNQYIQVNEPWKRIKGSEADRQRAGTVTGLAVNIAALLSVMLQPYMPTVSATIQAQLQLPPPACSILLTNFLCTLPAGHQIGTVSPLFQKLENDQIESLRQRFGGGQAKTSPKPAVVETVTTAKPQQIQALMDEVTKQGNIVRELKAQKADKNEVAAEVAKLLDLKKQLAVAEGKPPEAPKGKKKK
T1 sequence 2: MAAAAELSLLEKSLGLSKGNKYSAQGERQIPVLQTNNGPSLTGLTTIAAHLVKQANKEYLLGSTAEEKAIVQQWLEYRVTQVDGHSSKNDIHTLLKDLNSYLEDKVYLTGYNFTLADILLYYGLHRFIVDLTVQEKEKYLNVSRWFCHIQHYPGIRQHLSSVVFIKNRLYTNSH
Description: (§1) To investigate MRS-specific affinity of the 8A12 antibody, a surface plasmon resonance (SPR) test was performed using MRS-AIMP3 co-purified protein (hereinafter, MRS+AIMP3 protein) and AIMP3 protein. MRS+AIMP3 or AIMP3 protein was coated on a CM5 chip and the 8A12 antibody was allowed to flow down, thereby measuring the degree of binding response of the protein. An analyte sample or buffer was injected at a flow rate of 30 μl/min for 8 minutes, and washed for 20 minutes.

His-WRS = molecular target: T2, His-WRS (UniProt P23381 1-471, limits assumed); assay: ELISA, coated His-WRS, absorbance at 450 nm
T2 construct: not shown: His tag
T2 sequence (looked up): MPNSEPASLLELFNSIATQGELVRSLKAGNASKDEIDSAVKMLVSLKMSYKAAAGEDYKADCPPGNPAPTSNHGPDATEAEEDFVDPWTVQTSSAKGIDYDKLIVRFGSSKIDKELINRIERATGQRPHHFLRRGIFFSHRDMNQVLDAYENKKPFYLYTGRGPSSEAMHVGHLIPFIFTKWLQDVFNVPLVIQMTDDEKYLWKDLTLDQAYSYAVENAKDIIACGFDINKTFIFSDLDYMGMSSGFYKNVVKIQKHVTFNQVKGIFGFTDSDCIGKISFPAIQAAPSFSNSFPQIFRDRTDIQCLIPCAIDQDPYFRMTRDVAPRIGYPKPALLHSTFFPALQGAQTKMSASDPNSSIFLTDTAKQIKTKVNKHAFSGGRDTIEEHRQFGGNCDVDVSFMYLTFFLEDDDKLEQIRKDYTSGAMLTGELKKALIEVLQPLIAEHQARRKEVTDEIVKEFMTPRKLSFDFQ
Description: (§2) On a 96-well plate (Corning 3690 flat bottom, 96-well half-area plates), MRS proteins (His-MRS, MRS full) and other ARS proteins (DX2 tag free, 34S-DX2, 34S-AIMP2, His-CRS, His-AIMP1, His-GRS, His-WRS, His-KRS) were each coated at a concentration of 1 μg/ml. 8A12 antibody was added at a concentration of 500 ng/ml to the 96-well plate coated with coated with each of the ARS proteins, followed by incubation for 1 hour. Thereafter, HRP-conjugated anti-mouse IgG secondary antibody was added, followed by incubation for 1 hour, and the absorbance at 450 nm was measured by ELISA. As a substrate, 3,3′,5,5′-tetramethylbenzidine (TMB) was used.

His-KRS = molecular target: T3, His-KRS (UniProt Q15046 1-597); assay: ELISA, coated His-KRS, absorbance at 450 nm
T3 construct: not shown: His tag
Description: as §2

34S-AIMP2 = molecular target: T4, 34S-AIMP2 (UniProt Q13155 1-320); assay: ELISA, coated 34S-AIMP2, absorbance at 450 nm
T4 construct: The meaning of 34S is unknown
T4 sequence (looked up): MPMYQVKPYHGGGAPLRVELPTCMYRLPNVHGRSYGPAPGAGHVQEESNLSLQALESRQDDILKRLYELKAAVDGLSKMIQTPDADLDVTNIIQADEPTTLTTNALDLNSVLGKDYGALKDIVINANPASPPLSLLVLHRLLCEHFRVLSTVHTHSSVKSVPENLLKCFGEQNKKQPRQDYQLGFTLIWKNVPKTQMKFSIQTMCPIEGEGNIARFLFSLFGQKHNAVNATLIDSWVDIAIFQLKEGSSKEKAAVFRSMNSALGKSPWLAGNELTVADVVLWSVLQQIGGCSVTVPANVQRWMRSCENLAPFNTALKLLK
Description: as §2

His-GRS = molecular target: T5, His-GRS (UniProt P41250 55-739); assay: ELISA, coated His-GRS, absorbance at 450 nm
T5 construct: not shown: His tag
T5 sequence (looked up): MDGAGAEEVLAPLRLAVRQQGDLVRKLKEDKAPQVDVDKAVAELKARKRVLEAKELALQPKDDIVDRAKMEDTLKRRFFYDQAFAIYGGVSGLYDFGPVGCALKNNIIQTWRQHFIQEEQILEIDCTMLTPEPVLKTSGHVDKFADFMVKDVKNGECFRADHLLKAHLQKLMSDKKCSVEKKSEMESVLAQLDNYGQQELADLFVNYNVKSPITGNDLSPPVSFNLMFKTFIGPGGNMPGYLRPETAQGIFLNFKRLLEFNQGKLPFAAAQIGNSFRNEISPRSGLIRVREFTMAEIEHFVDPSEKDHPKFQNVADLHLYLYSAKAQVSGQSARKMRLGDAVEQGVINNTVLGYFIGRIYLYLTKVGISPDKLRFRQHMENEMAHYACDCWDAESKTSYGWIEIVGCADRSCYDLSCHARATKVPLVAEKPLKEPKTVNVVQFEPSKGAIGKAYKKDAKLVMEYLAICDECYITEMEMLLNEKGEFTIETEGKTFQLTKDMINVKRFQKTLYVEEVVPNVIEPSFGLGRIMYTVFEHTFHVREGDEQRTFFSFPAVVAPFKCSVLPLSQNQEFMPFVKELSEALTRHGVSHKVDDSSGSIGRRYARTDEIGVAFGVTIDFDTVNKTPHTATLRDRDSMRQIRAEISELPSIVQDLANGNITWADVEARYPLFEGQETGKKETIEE
Description: as §2

His-CRS = molecular target: T6, His-CRS (UniProt P49589 1-748); assay: ELISA, coated His-CRS, absorbance at 450 nm
T6 construct: not shown: His tag
T6 sequence (looked up): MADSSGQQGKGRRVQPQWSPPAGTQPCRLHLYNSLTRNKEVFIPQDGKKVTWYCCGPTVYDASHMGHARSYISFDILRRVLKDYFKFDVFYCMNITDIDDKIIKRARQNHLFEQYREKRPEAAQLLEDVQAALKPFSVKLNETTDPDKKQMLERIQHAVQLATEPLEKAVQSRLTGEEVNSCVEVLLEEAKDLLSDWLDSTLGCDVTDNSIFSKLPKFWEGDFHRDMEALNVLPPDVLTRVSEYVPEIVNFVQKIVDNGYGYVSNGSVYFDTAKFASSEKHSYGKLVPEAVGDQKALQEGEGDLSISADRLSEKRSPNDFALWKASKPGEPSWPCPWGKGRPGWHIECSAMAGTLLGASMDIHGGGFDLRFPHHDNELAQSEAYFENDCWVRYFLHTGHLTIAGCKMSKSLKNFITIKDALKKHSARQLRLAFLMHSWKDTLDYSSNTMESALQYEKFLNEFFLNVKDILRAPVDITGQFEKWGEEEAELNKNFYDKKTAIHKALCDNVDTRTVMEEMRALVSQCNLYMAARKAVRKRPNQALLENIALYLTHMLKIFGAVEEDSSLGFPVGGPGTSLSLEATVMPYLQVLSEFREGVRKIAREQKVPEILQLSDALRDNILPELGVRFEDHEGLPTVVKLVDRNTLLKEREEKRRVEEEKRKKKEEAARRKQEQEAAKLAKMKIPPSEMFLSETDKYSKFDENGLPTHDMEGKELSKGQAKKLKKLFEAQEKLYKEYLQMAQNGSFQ
Description: as §2

[2] = molecular target: T7, aminoacyl-tRNA synthetase complex-interacting multifunctional protein 3 (AIMP3) (Homo sapiens (Human), UniProt O43324 1-174, limits assumed); assay: SPR, AIMP3 protein on a CM5 chip, 8A12 antibody as analyte at 0.20 to 200 nM
T7 construct: The construct of the AIMP3-alone protein is not described; also called AIMP3 protein
T7 sequence: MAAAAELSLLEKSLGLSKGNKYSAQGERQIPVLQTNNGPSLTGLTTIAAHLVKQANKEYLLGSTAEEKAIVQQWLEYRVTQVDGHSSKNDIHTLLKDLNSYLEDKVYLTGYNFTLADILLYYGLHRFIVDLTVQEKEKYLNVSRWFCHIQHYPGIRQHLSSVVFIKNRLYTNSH
Description: as §1

[3] = molecular target: T1, MRS-AIMP3 co-purified protein; assay: SPR, MRS+AIMP3 protein on a CM5 chip, 8A12 antibody as analyte at 0.39 to 200 nM
Description: as §1

His-AIMP1 = molecular target: T8, His-AIMP1 (UniProt Q12904 1-312, limits assumed); assay: ELISA, coated His-AIMP1, absorbance at 450 nm
T8 construct: not shown: His tag
T8 sequence (looked up): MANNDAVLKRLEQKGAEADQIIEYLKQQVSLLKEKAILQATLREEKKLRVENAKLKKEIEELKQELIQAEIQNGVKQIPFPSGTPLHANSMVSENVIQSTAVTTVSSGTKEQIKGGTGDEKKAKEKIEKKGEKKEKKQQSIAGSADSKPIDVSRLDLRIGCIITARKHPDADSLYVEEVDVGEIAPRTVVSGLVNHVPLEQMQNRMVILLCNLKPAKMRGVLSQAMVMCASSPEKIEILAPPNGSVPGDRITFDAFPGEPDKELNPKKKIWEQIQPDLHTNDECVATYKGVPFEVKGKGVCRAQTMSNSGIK
Description: as §2

[4] = molecular target: T9, MRS fragment peptide of aa 851-880 (human); assay: ELISA, peptide coated at 300 ng/well, antibody at 10 nM
T9 peptide: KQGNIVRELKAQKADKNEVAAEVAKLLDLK
Description: The 8A12 antibody as a primary antibody was diluted to 10 nM (1× PBST-Tween 0.05%), and HRP-conjugated Goat anti-mouse IgG (Thermo) as a secondary antibody was diluted at 1:10000 (1×PBST-Tween0.05%), and the absorbance was measured at 450 nm.

T3 sequence (Q15046 whole entry): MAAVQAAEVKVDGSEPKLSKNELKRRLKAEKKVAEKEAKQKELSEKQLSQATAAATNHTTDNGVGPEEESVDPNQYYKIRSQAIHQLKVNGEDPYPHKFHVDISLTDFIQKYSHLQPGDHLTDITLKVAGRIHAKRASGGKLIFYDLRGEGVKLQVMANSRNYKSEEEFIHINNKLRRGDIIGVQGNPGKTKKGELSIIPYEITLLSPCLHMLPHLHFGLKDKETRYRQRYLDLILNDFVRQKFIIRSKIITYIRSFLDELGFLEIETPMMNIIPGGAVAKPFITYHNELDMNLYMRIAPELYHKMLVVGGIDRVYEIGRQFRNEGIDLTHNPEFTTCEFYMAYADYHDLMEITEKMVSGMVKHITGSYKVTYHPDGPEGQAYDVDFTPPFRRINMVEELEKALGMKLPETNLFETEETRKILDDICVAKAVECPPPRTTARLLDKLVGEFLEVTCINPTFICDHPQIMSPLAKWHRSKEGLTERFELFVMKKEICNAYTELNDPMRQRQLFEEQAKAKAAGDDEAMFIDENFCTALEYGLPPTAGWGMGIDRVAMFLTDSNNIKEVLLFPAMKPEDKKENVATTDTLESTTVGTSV

Kd [1]: 1.56 nM
binding result (His-WRS): no binding
binding result (His-KRS): no binding
binding result (34S-AIMP2): no binding
binding result (His-GRS): no binding
binding result (His-CRS): no binding
binding result [2]: no binding (tested: 200 nM)
koff [3]: 0.000213 s⁻¹
kon [3]: 137000 M⁻¹ s⁻¹
binding result (His-AIMP1): no binding
binding result [4]: binds
B1: 8A12 antibody (whole 8A12 IgG antibody) (antibody, V domains shown)
VH: DVKLQESGPGLVKPSQSLSLTCTVTGYSITSEYAWTWIRQFPGNKLEWMGYINYNGNTNLNPSLKSRISIIRDTSKNQFFLQLNSVTTEDTATYYCARSLWPRGWFAYWGQGTLVTVSA
VL: DIQMTQSPSSMYASLGERVTITCKASQDINSYLSWFQQKPGKSPKTLMYRANRLVDGVPSRFSGSGSGQDYSLTISSLEYEDMGIYYCLQYDEFPRTFGGGTKLEIKA
notes: Mouse monoclonal antibody from hybridoma 8A12; It was also made recombinantly in 293F cells with mouse IgG2a heavy and mouse kappa light chain vectors; also called MRS antibody; 8A12 clone expression antibody

From US20200225234A1 (ONCOTAG DIAGNOSTICS, published 2020)
